According to publication PMC5674511, “Increase of enzyme activity through specific covalent modification with fragments” (Chemical Science, 2017):

Substrate: CC(=O)N[C@H]1[C@H](Oc2ccc3c(C)cc(=O)oc3c2)O[C@H](CO)[C@@H](O)[C@@H]1O
Assay: fluorescence, 4MU release, Michaelis-Menten
Type: biochemical, Bacteroides thetaiotaomicron
Conditions: unmodified wild-type enzyme
Text: fluorescence, 4MU release, Michaelis-Menten on BtGH84

B1: BtGH84 (Bacteroides thetaiotaomicron VPI-5482) (protein)
chain: QNVSLQPPPQQLIVQNKTIDLPAVYQLNGGEEANPHAVKVLKELLSGKQSSKKGMLISIGEKGDKSVRKYSRQIPDHKEGYYLSVNEKEIVLAGNDERGTYYALQTFAQLLKDGKLPEVEIKDYPSVRYRGVVEGFYGTPWSHQARLSQLKFYGKNKMNTYIYGPKDDPYHSAPNWRLPYPDKEAAQLQELVAVANENEVDFVWAIHPGQDIKWNKEDRDLLLAKFEKMYQLGVRSFAVFFDDISGEGTNPQKQAELLNYIDEKFAQVKPDINQLVMCPTEYNKSWSNPNGNYLTTLGDKLNPSIQIMWTGDRVISDITRDGISWINERIKRPAYIWWNFPVSDYVRDHLLLGPVYGNDTTIAKEMSGFVTNPMEHAESSKIAIYSVASYAWNPAKYDTWQTWKDAIRTILPSAAEELECFAMHNSDLGPNGHGYRREESMDIQPAAERFLKAFKEGKNYDKADFETLQYTFERMKESADILLMNTENKPLIVEITPWVHQFKLTAEMGEEVLKMVEGRNESYFLRKYNHVKALQQQMFYIDQTSNQNPYQPGVKTATRVIKPLIDRTFATVVKFFNQKFNAHLDATTDYMPHKMISNVEQIKNLPLQVKANRVLISPANEVVKWAAGNSVEIELDAIYPGENIQINFGKDAPCTWGRLEISTDGKEWKTVDLKQKESRLSAGLQKAPVKFVRFTNVSDEEQQVYLRQFVLTIEKK
notes: recombinant purified enzyme
- Km: 1460 ± 220 µM
- kcat: 67 ± 5 s⁻¹
- kcat/Km: 46000 ± 5900 M⁻¹ s⁻¹
